# The RNAGym collection of RNA variant scans (doi:10.1073/pnas.2313332121)
# Fewer inactive variants are shown than the library holds.
# B1: TPR 5TU (parent)
# chain: GGAUCUUCUCGAUCUAACAAAAAAGACAAAUCUGCCACAAAGCUUGAGAGCAUCUUCGGAUGCAGAGGCGGCAGCCUUCGGUGGCGCGAUAGCGCCAACGUUCUCAACUAUGACACGCAAAACGCGUGCUCCGUUGAAUGGAGUUUAUCAUG
# Variants of: B1
# Experiment: polymerase ribozyme fitness, log enrichment relative to wild type (log ratio); higher = more active; in vitro selection for triplet polymerase activity
# How it was run: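 In triplicate, a single round of in vitro selection was run on each mutant library, PCR-built and transcribed, covering one subunit of a heterodimeric triplet polymerase ribozyme. Frozen incubation at −7 °C followed annealing with a biotinylated primer, partner subunit and triplets, and extended constructs were then gel-excised, streptavidin-captured and taken through RT-PCR. Fitness is the logarithm of genotype enrichment over wild-type enrichment, from inverse-variance-weighted replicate averages of Illumina-sequenced inputs and outputs. […] only genotypes with ≥10 input reads and ≥1 read per output were kept.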
row,Variant,polymerase ribozyme fitness (log ratio)
1,GGAUCUUCUCGAUCUAACAAAAAAGACAAAUCUGCCACAAAGCUUGAGAGCAUCUUCGGAUGCAGCGGCGCCAGCCUUCGGUGUCGCGAUAGCGCCAACGUUCUCAACUAUGACACGCAAAACGCGUGCUCCGUUGAAUGGAGUUUAUCAUG [A66C G71C G84U],≤ -4.2
2,GGAUCUUCUCGAUCUAACAAAAAAGACAAAUCUGCCACAAAGCUUGAGAGCAUCUUCGGAUGCAGCGGCGGCCGCCUUCGGUGGCGCGAUAGCGCCAACGUUCUCAACUAUGACACGCAAAACGCGUGCUCCGUUGAAUGGAGUUUAUCAUG [A66C A73C],≤ -4.2
3,GGAUCUUCUCGAUCUAACAAAAAAGACAAAUCUGCCACAAAGCUUGAGAGCAUCUUCGGAUGCAGGGGCGGCAGCCUUCGGUGGCGCGAUAGAGAUAACGUUCUCAACUAUGACAUGCAAAACGCGUGCUCCGUUGAAUGGAGUUUAUCAUG [A66G C93A C95A C96U C116U],≤ -4.2
4,GGAUCUUCUCGAUCUAACAAAAAAGACAAAUCUGCCACAAAGCUUGAGAGCAUCUUCGGAUGCAGCGGCGGCAUCCUUCGCUGGCGAGAUAGCGCCAACGUUCUCAACUAUGACACGAAAAACACGUGCUCCGUUGAAUGGAGUUUAUCAUG [A66C G74U G81C C87A C118A G124A],≤ -4.2
5,GGAUCUUCUCGAUCUAACAAAAAAGACAAAUCUGCCACAAAGCUUGAGAGCAUCUUCGGAUGCAGGGGCGGCAGCCUUCGGGGGCGCGAUAGAGCCAACGUUCUCAACUAUGACACGCAAAACGCGUGCUCCGUUGAAUGGAGUUUAUCAUG [A66G U82G C93A],≤ -4.2
6,GGAUCUUCUCGAUCUAACAAAAAAGACAAAUCUGCCACAAAGCUUGAGAGCAUCUUCGGAUGCAGCGGCGGCAGCCUUCGGUGGGGCGAUAGCGCCAACGUUCUCAACUAUGACACGCAAAACGCGUGCUCCGUUGAAUGGAGUUUAUCAUG [A66C C85G],-4.16
7,GGAUCUUCUCGAUCUAACAAAAAAGACAAAUCUGCCACAAAGCUUGAGAGCAUCUUCGGAUGCAGGGGCGGCAGCCUUCGGUGGCGCGAUACCGACAACGUUUUCAAGUAUGACACGCAAAACGCGUGCUCCGUUGAAUGGAGUUUAUCACG [A66G G92C C95A C103U C108G U151C],≤ -4.2
8,GGAUCUUCUCGAUCUAACAAAAAAGACAAAUCUGCCACAAAGCUUGAGAGCAUCUUCGGAUGCAGCGGCGGCAGCCUUCGGUGGGGCGAUAGCGCCAACGUUCUCAACUAUGACACGCAAAACGCGUGCUCCGUUGAAUGAAGUUCAUCAUG [A66C C85G G141A U146C],≤ -4.2
9,GGAUCUUCUCGAUCUAACAAAAAAGACAAAUCUGCCACAAAGCUUGAGAGCAUCUUCGGAUGCAGGGGCGGCAGCCUUCGGUGGCGCGAUAGCGCCAACCUUCUCACCUAUGAUACGCAAACCGCGUGCUCCCUUGAAUGGAGUUUAUCAUG [A66G G100C A107C C114U A122C G133C],≤ -4.2
10,GGAUCUUCUCGAUCUAACAAAAAAGACAAAUCUGCCACAAAGCUUGAGAGCAUCUUCGGAUGCAGGGGCGGCAGCCUUCGGUGGCGCGAUAGCGCCAACGUUCUCAACUAUGACACGCAAAACGCGUGCUCCUUUGAAUGGAGUAUAUCAUG [A66G G133U U145A],≤ -4.2
11,GGAUCUUCUCGAUCUAACAAAAAAGACAAAUCUGCCACAAAGCUUGAGAGCAUCUUCGGAUGCAGGGGCGGCAGCCUUCGGUGGUGCGAUAGCGCCAACGUUCUCAACUAGGACACGCAAAACGCGUGCUCCGUUGAAUGGAGUUAAUCAUG [A66G C85U U111G U146A],≤ -4.2
12,GGAUCUUCUCGAUCUAACAAAAAAGACAAAUCUGCCACAAAGCUUGAGAGCAUCUUCGGAUGCAGCGGUGGCAGCCUUCGGUGGCGCGAUAGCGCUAACGUUCUCAACUAUGACACGCAAAACGCGUGCUCCGUUGAAUGGAGUUUAUCAUG [A66C C69U C96U],≤ -4.2
13,GGAUCUUCUCGAUCUAACAAAAAAGACAAAUCUGCCACAAAGCUUGAGAGCAUCUUCGGAUGCAGCGGCAACAGCCUUCGGUGGCGCGAUAGCGCCAACUUUCUCAACUAUGACACGCAAAACGCGUGCUCCGUUGAAUGGAAUUUAGCAUG [A66C G70A G71A G100U G143A U148G],≤ -4.2
14,GGAUCUUCUCGAUCUAACAAAAAAGACAAAUCUGCCACAAAGCUUGAGAGCAUCUUCGGAUGCAGCGGCGGCAGCUUUCGGGGGGGCGAUAGCGCCAACGUUCUCAACUAUGACACGCAAAACGGGUGCUCCGUUGAAUGGAGUUUAUCAUG [A66C C76U U82G C85G C125G],≤ -4.2
15,GGAUCUUCUCGAUCUAACAAAAAAGACAAAUCUGCCACAAAGCUUGAGAGCAUCUUCGGAUGCAGGGGCGGCAGCCUUCGGUGGCGCGAUAGCGCAAGCGUUCUCAACUAUGACACGCAAAACGCGUGCUCCGUUUAAUGGAGUUUAUCAUG [A66G C96A A98G G136U],≤ -4.2
16,GGAUCUUCUCGAUCUAACAAAAAAGACAAAUCUGCCACAAAGCUUGAGAGCAUCUUCGGAUGCAGGGCCGGCAGCCUUCGGUGGCGCGAUAGCGCCAACGUACUCAACUAUGACACGCAAAACGCGUGCUCCGUUGAAUGGAGUUUAUCAUG [A66G G68C U102A],≤ -4.2
17,GGAUCUUCUCGAUCUAACAAAAAAGACAAAUCUGCCACAAAGCUUGAGAGCAUCUUCGGAUGCAGCGGCGGCGGCCUUCCGUGGCGCGAUAGCGCCAACGUUCUCAACUAUGAAACGCAAAACGCGUGCUCCGUUGAAUGAAGUUUAUCAUG [A66C A73G G80C C114A G141A],≤ -4.2
18,GGAUCUUCUCGAUCUAACAAAAAAGACAAAUCUGCCACAAAGCUUGAGAGCAUCUUCGGAUGCAGGGGCGGCAGCCUUCGGUGGCGCGAUAGCGCCAACGUUCUCGACUAUGACACGCAAAACGCGUGCUCCGUUGAAAGGAGUUUAUCAUG [A66G A106G U139A],≤ -4.2
19,GGAUCUUCUCGAUCUAACAAAAAAGACAAAUCUGCCACAAAGCUUGAGAGCAUCUUCGGAUGCAGCGGCGGCAGCCUUCGGUGGCGCGAUACCGCGAACGUUCUCAACUAUGACACGCAGAACGCGUGCUCCGUUGAAUGGAGUUUAUCAUG [A66C G92C C96G A120G],-4.14
